# Laboratory results: patent US20230174610A1 (Harvard, published 2023)
# B1: SE001, His-tag single-chain relaxin (ligand)
# chain: HHHHHHDSWMEEVIKLCGRELVRAQIAICGMSTWSDAASSHSHSSARQLYSALANKCCHVGCTKRSLARFC
# B2: SE401, Single-chain relaxin with the combined substitutions of SE201, 204-207, fused to the C-terminus of mouse serum albumin with an N-terminal 8X His-tag (other)
# chain: HHHHHHHHRGVFRREAHKSEIAHRYNDLGEQHFKGLVLIAFSQYLQKCSYDEHAKLVQEVTDFAKTCVADESAANCDKSLHTLFGDKLCAIPNLRENYGELADCCTKQEPERNECFLQHKDDNPSLPPFERPEAEAMCTSFKENPTTFMGHYLHEVARRHPYFYAPELLYYAEQYNEILTQCCAEADKESCLTPKLDGVKEKALVSSVRQRMKCSSMQKFGERAFKAWAVARLSQTFPNADFAEITKLATDLTKVNKECCHGDLLECADDRAELAKYMCENQATISSKLQTCCDKPLLKKAHCLSEVEHDTMPADLPAIAADFVEDQEVCKNYAEAKDVFLGTFLYEYSRRHPDYSVSLLLRLAKKYEATLEKCCAEANPPACYGTVLAEFQPLVEEPKNLVKTNCDLYEKLGEYGFQNAILVRYTQKAPQVSTPTLVEAARNLGRVGTKCCTLPEDQRLPCVEDYLSAILNRVCLLHEKTPVSEHVTKCCSGSLVERRPCFSALTVDETYVPKEFKAETFTFHSDICTLPEKEKQIKKQTALAELVKHKPKATAEQLKTVMDDFAQFLDTCCKAADKDTCFSTEGPNLVTRCKDALAGGSDSWKEEVIKLCGRELVRAQIAICGKSTASDAAGANANAGARQLYSALANKCCHVGCTKRSLARFC
# B3: SE004, Protein C-tag and His-tag single-chain relaxin (ligand)
# chain: EDQVDPRLIDGKGSHHHHHHDSWMEEVIKLCGRELVRAQIAICGMSTWSDAASSHSHSSARQLYSALANKCCHVGCTKRSLARFC
# B4: SE005, Truncated His-tag single-chain relaxin (ligand)
# chain: HHHHHHEEVIKLCGRELVRAQIAICGMSTWSDAASSHSHSSARQLYSALANKCCHVGCTKRSLARFC
# Target: T1, RXFP1 receptor expressed by transient transfection in HEK293T cells (UniProt Q9HBX9 1-757, limits assumed)
# T1 sequence (looked up): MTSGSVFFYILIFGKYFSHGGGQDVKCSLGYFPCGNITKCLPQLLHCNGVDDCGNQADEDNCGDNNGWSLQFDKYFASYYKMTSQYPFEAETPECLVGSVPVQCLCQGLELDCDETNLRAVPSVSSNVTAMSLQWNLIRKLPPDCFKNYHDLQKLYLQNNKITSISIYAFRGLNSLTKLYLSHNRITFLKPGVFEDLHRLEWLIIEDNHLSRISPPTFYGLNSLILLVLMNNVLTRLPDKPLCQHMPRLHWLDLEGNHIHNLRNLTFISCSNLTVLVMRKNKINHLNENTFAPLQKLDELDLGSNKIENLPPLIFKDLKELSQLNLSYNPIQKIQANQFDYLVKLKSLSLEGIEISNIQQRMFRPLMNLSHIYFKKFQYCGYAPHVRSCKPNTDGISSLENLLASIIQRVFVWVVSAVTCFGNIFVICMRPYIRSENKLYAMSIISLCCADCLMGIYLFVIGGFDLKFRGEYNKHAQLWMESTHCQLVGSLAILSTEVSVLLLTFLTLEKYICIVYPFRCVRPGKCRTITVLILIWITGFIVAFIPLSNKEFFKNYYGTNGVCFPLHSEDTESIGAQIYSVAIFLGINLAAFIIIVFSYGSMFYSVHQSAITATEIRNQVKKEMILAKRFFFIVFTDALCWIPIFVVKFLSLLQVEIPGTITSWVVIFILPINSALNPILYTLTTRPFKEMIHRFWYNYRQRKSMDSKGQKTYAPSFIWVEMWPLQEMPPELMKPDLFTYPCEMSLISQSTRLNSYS
# Assay: cell-based or functional assay
Binder,Emax (Native two-chain relaxin = 100% Emax),EC50
B1,118%,–
B2,121%,52.6 nM
B3,117%,1.5 nM
B4,112%,0.485 nM
